Measurements published in patent US9284543B2, “Neutral active soluble truncated PH20 polypeptides and uses thereof” (Halozyme, Inc., priority 2008, dated 2016).

B1: SPAM1-PQIF: C-terminally truncated human PH20, precursor 481 aa (SEQ ID NO:19), mature 446 aa (SEQ ID NO:71) (protein, listed as Homo sapiens)
chain 1: MGVLKFKHIFFRSFVKSSGVSQIVFTFLLIPCCLTLNFRAPPVIPNVPFLWAWNAPSEFCLGKFDEPLDMSLFSFIGSPRINATGQGVTIFYVDRLGYYPYIDSITGVTVNGGIPQKISLQDHLDKAKKDITFYMPVDNLGMAVIDWEEWRPTWARNWKPKDVYKNRSIELVQQQNVQLSLTEATEKAKQEFEKAGKDFLVETIKLGKLLRPNHLWGYYLFPDCYNHHYKKPGYNGSCFNVEIKRNDDLSWLWNESTALYPSIYLNTQQSPVAATLYVRNRVREAIRVSKIPDAKSPLPVFAYTRIVFTDQVLKFLSQDELVYTFGETVALGASGIVIWGTLSIMRSMKSCLLLDNYMETILNPYIINVTLAAKMCSQVLCQEQGVCIRKNWNSSDYLHLNPDNFAIQLEKGGKFTVRGKPTLEDLEQFSEKFYCSCYSTLSCKEKADVKDTDAVDVCIADGVCIDAFLKPPMETEEPQIF
chain 2: LNFRAPPVIPNVPFLWAWNAPSEFCLGKFDEPLDMSLFSFIGSPRINATGQGVTIFYVDRLGYYPYIDSITGVTVNGGIPQKISLQDHLDKAKKDITFYMPVDNLGMAVIDWEEWRPTWARNWKPKDVYKNRSIELVQQQNVQLSLTEATEKAKQEFEKAGKDFLVETIKLGKLLRPNHLWGYYLFPDCYNHHYKKPGYNGSCFNVEIKRNDDLSWLWNESTALYPSIYLNTQQSPVAATLYVRNRVREAIRVSKIPDAKSPLPVFAYTRIVFTDQVLKFLSQDELVYTFGETVALGASGIVIWGTLSIMRSMKSCLLLDNYMETILNPYIINVTLAAKMCSQVLCQEQGVCIRKNWNSSDYLHLNPDNFAIQLEKGGKFTVRGKPTLEDLEQFSEKFYCSCYSTLSCKEKADVKDTDAVDVCIADGVCIDAFLKPPMETEEPQIF
modifications: HuPH20 precursor 1-481; Mature HuPH20 36-481
B2: SPAM1-YNAS: C-terminally truncated human PH20, precursor 485 aa (SEQ ID NO:15), mature 450 aa (SEQ ID NO:67) (protein, listed as Homo sapiens)
chain: LNFRAPPVIPNVPFLWAWNAPSEFCLGKFDEPLDMSLFSFIGSPRINATGQGVTIFYVDRLGYYPYIDSITGVTVNGGIPQKISLQDHLDKAKKDITFYMPVDNLGMAVIDWEEWRPTWARNWKPKDVYKNRSIELVQQQNVQLSLTEATEKAKQEFEKAGKDFLVETIKLGKLLRPNHLWGYYLFPDCYNHHYKKPGYNGSCFNVEIKRNDDLSWLWNESTALYPSIYLNTQQSPVAATLYVRNRVREAIRVSKIPDAKSPLPVFAYTRIVFTDQVLKFLSQDELVYTFGETVALGASGIVIWGTLSIMRSMKSCLLLDNYMETILNPYIINVTLAAKMCSQVLCQEQGVCIRKNWNSSDYLHLNPDNFAIQLEKGGKFTVRGKPTLEDLEQFSEKFYCSCYSTLSCKEKADVKDTDAVDVCIADGVCIDAFLKPPMETEEPQIFYNAS
modifications: mature HuPH20 36-485
B3: SPAM1-IFYN: C-terminally truncated human PH20, precursor 483 aa (SEQ ID NO:17), mature 448 aa (SEQ ID NO:69) (protein, listed as Homo sapiens)
chain 1: MGVLKFKHIFFRSFVKSSGVSQIVFTFLLIPCCLTLNFRAPPVIPNVPFLWAWNAPSEFCLGKFDEPLDMSLFSFIGSPRINATGQGVTIFYVDRLGYYPYIDSITGVTVNGGIPQKISLQDHLDKAKKDITFYMPVDNLGMAVIDWEEWRPTWARNWKPKDVYKNRSIELVQQQNVQLSLTEATEKAKQEFEKAGKDFLVETIKLGKLLRPNHLWGYYLFPDCYNHHYKKPGYNGSCFNVEIKRNDDLSWLWNESTALYPSIYLNTQQSPVAATLYVRNRVREAIRVSKIPDAKSPLPVFAYTRIVFTDQVLKFLSQDELVYTFGETVALGASGIVIWGTLSIMRSMKSCLLLDNYMETILNPYIINVTLAAKMCSQVLCQEQGVCIRKNWNSSDYLHLNPDNFAIQLEKGGKFTVRGKPTLEDLEQFSEKFYCSCYSTLSCKEKADVKDTDAVDVCIADGVCIDAFLKPPMETEEPQIFYN
chain 2: LNFRAPPVIPNVPFLWAWNAPSEFCLGKFDEPLDMSLFSFIGSPRINATGQGVTIFYVDRLGYYPYIDSITGVTVNGGIPQKISLQDHLDKAKKDITFYMPVDNLGMAVIDWEEWRPTWARNWKPKDVYKNRSIELVQQQNVQLSLTEATEKAKQEFEKAGKDFLVETIKLGKLLRPNHLWGYYLFPDCYNHHYKKPGYNGSCFNVEIKRNDDLSWLWNESTALYPSIYLNTQQSPVAATLYVRNRVREAIRVSKIPDAKSPLPVFAYTRIVFTDQVLKFLSQDELVYTFGETVALGASGIVIWGTLSIMRSMKSCLLLDNYMETILNPYIINVTLAAKMCSQVLCQEQGVCIRKNWNSSDYLHLNPDNFAIQLEKGGKFTVRGKPTLEDLEQFSEKFYCSCYSTLSCKEKADVKDTDAVDVCIADGVCIDAFLKPPMETEEPQIFYN
modifications: HuPH20 precursor 1-483; Mature HuPH20 36-483
B4: SPAM1-QIFY: C-terminally truncated human PH20, precursor 482 aa (SEQ ID NO:18), mature 447 aa (SEQ ID NO:70) (protein, listed as Homo sapiens)
chain 1: MGVLKFKHIFFRSFVKSSGVSQIVFTFLLIPCCLTLNFRAPPVIPNVPFLWAWNAPSEFCLGKFDEPLDMSLFSFIGSPRINATGQGVTIFYVDRLGYYPYIDSITGVTVNGGIPQKISLQDHLDKAKKDITFYMPVDNLGMAVIDWEEWRPTWARNWKPKDVYKNRSIELVQQQNVQLSLTEATEKAKQEFEKAGKDFLVETIKLGKLLRPNHLWGYYLFPDCYNHHYKKPGYNGSCFNVEIKRNDDLSWLWNESTALYPSIYLNTQQSPVAATLYVRNRVREAIRVSKIPDAKSPLPVFAYTRIVFTDQVLKFLSQDELVYTFGETVALGASGIVIWGTLSIMRSMKSCLLLDNYMETILNPYIINVTLAAKMCSQVLCQEQGVCIRKNWNSSDYLHLNPDNFAIQLEKGGKFTVRGKPTLEDLEQFSEKFYCSCYSTLSCKEKADVKDTDAVDVCIADGVCIDAFLKPPMETEEPQIFY
chain 2: LNFRAPPVIPNVPFLWAWNAPSEFCLGKFDEPLDMSLFSFIGSPRINATGQGVTIFYVDRLGYYPYIDSITGVTVNGGIPQKISLQDHLDKAKKDITFYMPVDNLGMAVIDWEEWRPTWARNWKPKDVYKNRSIELVQQQNVQLSLTEATEKAKQEFEKAGKDFLVETIKLGKLLRPNHLWGYYLFPDCYNHHYKKPGYNGSCFNVEIKRNDDLSWLWNESTALYPSIYLNTQQSPVAATLYVRNRVREAIRVSKIPDAKSPLPVFAYTRIVFTDQVLKFLSQDELVYTFGETVALGASGIVIWGTLSIMRSMKSCLLLDNYMETILNPYIINVTLAAKMCSQVLCQEQGVCIRKNWNSSDYLHLNPDNFAIQLEKGGKFTVRGKPTLEDLEQFSEKFYCSCYSTLSCKEKADVKDTDAVDVCIADGVCIDAFLKPPMETEEPQIFY
modifications: HuPH20 precursor 1-482; Mature HuPH20 36-482
B5: SPAM1-FYNA: C-terminally truncated human PH20, precursor 484 aa (SEQ ID NO:16), mature 449 aa (SEQ ID NO:68) (protein, listed as Homo sapiens)
chain 1: MGVLKFKHIFFRSFVKSSGVSQIVFTFLLIPCCLTLNFRAPPVIPNVPFLWAWNAPSEFCLGKFDEPLDMSLFSFIGSPRINATGQGVTIFYVDRLGYYPYIDSITGVTVNGGIPQKISLQDHLDKAKKDITFYMPVDNLGMAVIDWEEWRPTWARNWKPKDVYKNRSIELVQQQNVQLSLTEATEKAKQEFEKAGKDFLVETIKLGKLLRPNHLWGYYLFPDCYNHHYKKPGYNGSCFNVEIKRNDDLSWLWNESTALYPSIYLNTQQSPVAATLYVRNRVREAIRVSKIPDAKSPLPVFAYTRIVFTDQVLKFLSQDELVYTFGETVALGASGIVIWGTLSIMRSMKSCLLLDNYMETILNPYIINVTLAAKMCSQVLCQEQGVCIRKNWNSSDYLHLNPDNFAIQLEKGGKFTVRGKPTLEDLEQFSEKFYCSCYSTLSCKEKADVKDTDAVDVCIADGVCIDAFLKPPMETEEPQIFYNA
chain 2: LNFRAPPVIPNVPFLWAWNAPSEFCLGKFDEPLDMSLFSFIGSPRINATGQGVTIFYVDRLGYYPYIDSITGVTVNGGIPQKISLQDHLDKAKKDITFYMPVDNLGMAVIDWEEWRPTWARNWKPKDVYKNRSIELVQQQNVQLSLTEATEKAKQEFEKAGKDFLVETIKLGKLLRPNHLWGYYLFPDCYNHHYKKPGYNGSCFNVEIKRNDDLSWLWNESTALYPSIYLNTQQSPVAATLYVRNRVREAIRVSKIPDAKSPLPVFAYTRIVFTDQVLKFLSQDELVYTFGETVALGASGIVIWGTLSIMRSMKSCLLLDNYMETILNPYIINVTLAAKMCSQVLCQEQGVCIRKNWNSSDYLHLNPDNFAIQLEKGGKFTVRGKPTLEDLEQFSEKFYCSCYSTLSCKEKADVKDTDAVDVCIADGVCIDAFLKPPMETEEPQIFYNA
modifications: HuPH20 precursor 1-484; Mature HuPH20 36-484

What was measured:
[1] = Microtiter hyaluronidase activity assay with biotinylated-hyaluronic acid; assay type: biochemical; conditions: Table 6, 72 hour post transfection supernatant
CHO-S cells = test: Western blot analysis of PH20 expression in media and cells after transient expression; assay type: cell-based, Chinese Hamster; conditions: media versus cells
Method in brief: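 CHO-S cells were transiently transfected with mutant PH20-HZ24 plasmids using GeneJuice and expressed for 48-72 h at 37 °C, 5% CO2. Media and cells were harvested separately, with PI-PLC treatment used to release GPI-anchored protein. Non-reduced samples were blotted with rabbit anti-PH20 (0.5 μg/mL), and a band near 66 kDa was scored as PH20.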

Molecule | pH 5.5 Activity [1] [Units/ml] | pH 7.4 Activity [1] [Units/ml] | Expressed in Media (CHO-S cells)
B1 | 1.701 | 1.818 | YES
B2 | 1.748 | 1.8765 | YES
B3 | 2.3085 | 2.45 | YES
B4 | 1.647 | 2.032 | YES
B5 | 1.262 | 1.4985 | YES
